These results are taken from patent publication US7744896 (ISTITUTO SUPERIORE DI SANITA, dated 2010).

Experiment [1] deals with T1, α5β1 integrin (fibronectin receptor) on cytokine-activated human umbilical vein endothelial (HUVE) cells (human, UniProt P08648 42-1049; P05556 21-798).
T1 construct: whole, on cells; also called FN receptor
Put plainly: conclusion of the uptake inhibition experiments on IC-activated HUVE cells.

Experiment [2] deals with T2, αvβ3 integrin (vitronectin receptor) on cytokine-activated human umbilical vein endothelial (HUVE) cells (human, UniProt P06756 31-1048; P05106 27-788).
T2 construct: whole, on cells; also called VN receptor
T2 sequence (P06756 31-1048, chain 1 of 2): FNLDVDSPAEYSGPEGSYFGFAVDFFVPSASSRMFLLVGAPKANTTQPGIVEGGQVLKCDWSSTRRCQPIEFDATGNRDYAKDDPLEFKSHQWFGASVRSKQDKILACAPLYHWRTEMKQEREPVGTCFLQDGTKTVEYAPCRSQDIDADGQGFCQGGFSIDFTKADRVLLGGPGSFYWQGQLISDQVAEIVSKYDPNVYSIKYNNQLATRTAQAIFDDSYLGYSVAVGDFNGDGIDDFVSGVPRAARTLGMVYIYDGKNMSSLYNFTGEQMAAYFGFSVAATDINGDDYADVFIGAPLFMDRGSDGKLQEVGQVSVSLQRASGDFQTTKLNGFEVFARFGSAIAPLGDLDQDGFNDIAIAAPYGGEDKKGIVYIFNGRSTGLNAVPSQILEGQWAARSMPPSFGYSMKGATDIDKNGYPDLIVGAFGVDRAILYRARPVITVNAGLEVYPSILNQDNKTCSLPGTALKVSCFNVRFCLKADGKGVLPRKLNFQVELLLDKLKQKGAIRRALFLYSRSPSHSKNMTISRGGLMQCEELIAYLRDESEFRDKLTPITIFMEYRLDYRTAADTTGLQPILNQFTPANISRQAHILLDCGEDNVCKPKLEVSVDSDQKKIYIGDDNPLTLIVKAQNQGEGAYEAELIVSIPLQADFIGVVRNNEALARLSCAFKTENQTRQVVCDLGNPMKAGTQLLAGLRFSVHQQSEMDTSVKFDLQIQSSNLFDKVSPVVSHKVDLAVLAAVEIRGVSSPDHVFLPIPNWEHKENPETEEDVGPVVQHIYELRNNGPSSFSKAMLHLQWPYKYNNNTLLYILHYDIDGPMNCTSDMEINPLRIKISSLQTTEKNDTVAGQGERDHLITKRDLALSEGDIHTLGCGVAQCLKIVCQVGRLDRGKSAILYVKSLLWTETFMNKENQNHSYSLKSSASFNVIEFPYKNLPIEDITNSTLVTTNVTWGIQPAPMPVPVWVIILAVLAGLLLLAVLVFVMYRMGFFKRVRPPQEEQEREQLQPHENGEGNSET
T2 sequence (P05106 27-788, chain 2 of 2): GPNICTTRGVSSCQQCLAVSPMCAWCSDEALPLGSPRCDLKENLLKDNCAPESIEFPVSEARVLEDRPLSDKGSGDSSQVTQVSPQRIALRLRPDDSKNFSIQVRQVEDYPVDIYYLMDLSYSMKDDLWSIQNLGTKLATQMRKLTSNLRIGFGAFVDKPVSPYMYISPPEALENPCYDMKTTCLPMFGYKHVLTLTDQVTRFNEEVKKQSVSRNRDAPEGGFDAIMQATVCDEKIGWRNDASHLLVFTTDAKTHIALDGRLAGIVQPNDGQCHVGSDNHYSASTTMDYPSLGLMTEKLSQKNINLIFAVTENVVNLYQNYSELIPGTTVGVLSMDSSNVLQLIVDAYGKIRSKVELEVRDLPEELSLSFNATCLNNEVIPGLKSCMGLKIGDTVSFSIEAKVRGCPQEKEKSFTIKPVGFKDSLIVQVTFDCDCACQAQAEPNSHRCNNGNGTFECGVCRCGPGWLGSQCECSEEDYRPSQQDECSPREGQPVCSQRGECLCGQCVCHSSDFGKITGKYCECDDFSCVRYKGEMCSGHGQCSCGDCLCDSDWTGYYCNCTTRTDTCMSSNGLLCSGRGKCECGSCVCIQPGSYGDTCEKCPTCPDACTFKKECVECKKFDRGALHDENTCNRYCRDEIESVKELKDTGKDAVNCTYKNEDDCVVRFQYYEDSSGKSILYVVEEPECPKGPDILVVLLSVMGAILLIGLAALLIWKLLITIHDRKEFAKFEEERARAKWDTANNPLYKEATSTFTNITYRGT
The experiment is described as above.

T1 sequence (P08648 42-1049, chain 1 of 2): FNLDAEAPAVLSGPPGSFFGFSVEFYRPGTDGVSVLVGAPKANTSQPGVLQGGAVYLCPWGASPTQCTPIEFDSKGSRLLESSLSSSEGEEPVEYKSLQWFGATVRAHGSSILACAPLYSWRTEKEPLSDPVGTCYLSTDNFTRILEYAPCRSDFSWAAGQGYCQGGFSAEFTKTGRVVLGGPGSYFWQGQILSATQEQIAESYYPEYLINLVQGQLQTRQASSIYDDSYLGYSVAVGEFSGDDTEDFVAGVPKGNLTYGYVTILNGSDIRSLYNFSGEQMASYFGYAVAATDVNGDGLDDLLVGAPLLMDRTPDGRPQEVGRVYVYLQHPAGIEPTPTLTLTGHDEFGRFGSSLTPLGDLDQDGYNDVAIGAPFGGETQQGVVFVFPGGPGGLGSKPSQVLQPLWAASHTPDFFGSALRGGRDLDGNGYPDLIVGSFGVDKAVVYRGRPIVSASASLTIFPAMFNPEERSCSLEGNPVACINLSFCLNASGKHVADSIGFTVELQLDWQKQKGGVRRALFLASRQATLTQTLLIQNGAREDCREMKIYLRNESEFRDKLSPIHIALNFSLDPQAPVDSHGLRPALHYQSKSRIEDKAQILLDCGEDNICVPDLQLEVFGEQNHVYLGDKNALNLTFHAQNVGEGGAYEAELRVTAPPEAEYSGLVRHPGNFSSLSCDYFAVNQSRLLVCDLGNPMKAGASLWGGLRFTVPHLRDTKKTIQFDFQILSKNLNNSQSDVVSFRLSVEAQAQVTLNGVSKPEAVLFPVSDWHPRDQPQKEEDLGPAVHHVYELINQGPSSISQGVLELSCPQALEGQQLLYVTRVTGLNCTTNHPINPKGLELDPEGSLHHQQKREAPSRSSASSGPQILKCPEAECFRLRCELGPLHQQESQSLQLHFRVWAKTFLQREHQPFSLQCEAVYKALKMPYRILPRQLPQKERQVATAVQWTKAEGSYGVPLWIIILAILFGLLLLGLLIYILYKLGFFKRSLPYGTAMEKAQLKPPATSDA
T1 sequence (P05556 21-798, chain 2 of 2): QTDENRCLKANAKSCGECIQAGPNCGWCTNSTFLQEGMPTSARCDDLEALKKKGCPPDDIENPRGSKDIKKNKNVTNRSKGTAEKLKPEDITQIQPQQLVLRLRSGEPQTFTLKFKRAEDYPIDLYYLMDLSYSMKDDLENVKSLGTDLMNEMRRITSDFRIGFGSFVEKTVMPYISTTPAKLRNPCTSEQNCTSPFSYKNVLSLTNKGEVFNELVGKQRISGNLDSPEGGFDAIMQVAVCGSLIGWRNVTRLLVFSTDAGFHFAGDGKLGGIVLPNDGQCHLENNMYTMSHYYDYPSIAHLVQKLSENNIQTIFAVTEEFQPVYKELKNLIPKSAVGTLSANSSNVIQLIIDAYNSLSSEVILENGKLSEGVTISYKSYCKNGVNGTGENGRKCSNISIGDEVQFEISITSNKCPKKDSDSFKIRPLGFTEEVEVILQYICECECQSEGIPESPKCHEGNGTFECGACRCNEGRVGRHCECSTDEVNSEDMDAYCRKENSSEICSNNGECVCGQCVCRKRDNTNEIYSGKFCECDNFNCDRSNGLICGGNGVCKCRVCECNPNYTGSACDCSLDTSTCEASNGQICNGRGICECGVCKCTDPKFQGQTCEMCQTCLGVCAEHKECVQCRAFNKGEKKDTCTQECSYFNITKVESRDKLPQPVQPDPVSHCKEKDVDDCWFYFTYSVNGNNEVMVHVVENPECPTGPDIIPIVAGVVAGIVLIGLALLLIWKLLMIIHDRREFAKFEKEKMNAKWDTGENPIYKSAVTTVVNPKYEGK

B1: rhodaminated Tat protein (other)
chain: MEPVDPRLEPWKHPGSQPKTACTNCYCKKCCFHCQVCFITKALGISYGRKKRRQRRRPPQGSQTHQVSLSKQPTSQSRGDPTGPKE
modifications: rhodaminated (TRITC) at lysine residues
notes: Recombinant Tat labelled with TRITC; also called rhodaminated biologically-active Tat protein
For the molecule B1, the binding result in experiment [1] and in experiment [2] was “binds” throughout.
